{"source": "the Human Domainome abundance scans (Beltran et al. 2025)", "parents": {"B1": {"name": "E3 ubiquitin-protein ligase TRIM36, residues 208 to 252; numbered along this chain, Q9NQ86 (parent)", "chain": "KILMCPEHETERINMYCELCRRPVCHLCKLGGNHANHRVTTMSSA"}, "B2": {"name": "Bromodomain adjacent to zinc finger domain protein 2B, residues 1927 to 1982; numbered along this chain, Q9UIF8 (parent)", "chain": "KSIMKVYCQICRKGDNEELLLLCDGCDKGCHTYCHRPKITTIPDGDWFCPACIAKA"}}, "note": "± gives the uncertainty stated by the source."}
{"variants_of": "B1", "experiment": "abundance fitness (aPCA) (normalised: wild type 0, dead -1); higher = more abundant; growth selection in yeast, the domain comes from the species named", "details": "Homo sapiens"}
{"variant": "N36H", "abundance fitness": "-0.05 ± 0.058"}
{"variant": "N36G", "abundance fitness": "-0.059 ± 0.053"}
{"variant": "N36W", "abundance fitness": "-0.299 ± 0.051"}
{"variant": "N36E", "abundance fitness": "0.039 ± 0.064"}
{"variant": "N36Q", "abundance fitness": "0.021 ± 0.063"}
{"variant": "M15A", "abundance fitness": "-0.166 ± 0.18"}
{"variant": "N14R", "abundance fitness": "-0.149 ± 0.071"}
{"variant": "N14Y", "abundance fitness": "-0.065 ± 0.13"}
{"variant": "N14S", "abundance fitness": "-0.041 ± 0.088"}
{"variant": "N14F", "abundance fitness": "0.08 ± 0.1"}
{"variant": "N14P", "abundance fitness": "-0.195 ± 0.12"}
{"variant": "N14W", "abundance fitness": "-0.224 ± 0.072"}
{"variant": "N14K", "abundance fitness": "0.036 ± 0.068"}
{"variant": "H8D", "abundance fitness": "-0.858 ± 0.089"}
{"variant": "H8G", "abundance fitness": "-0.766 ± 0.055"}
{"variant": "H8N", "abundance fitness": "-0.819 ± 0.089"}
{"variant": "H8T", "abundance fitness": "-0.72 ± 0.075"}
{"variant": "H8L", "abundance fitness": "-1.24 ± 0.08"}
{"variant": "H8S", "abundance fitness": "-0.786 ± 0.068"}
{"variant": "H8V", "abundance fitness": "-1.13 ± 0.073"}
{"variant": "H8M", "abundance fitness": "-1.4 ± 0.22"}
{"variant": "H26R", "abundance fitness": "-0.05 ± 0.055"}
{"variant": "H26F", "abundance fitness": "-0.307 ± 0.24"}
{"variant": "H26C", "abundance fitness": "0.01 ± 0.065"}
{"variant": "H26Y", "abundance fitness": "0.343 ± 0.12"}
{"variant": "G31W", "abundance fitness": "-0.438 ± 0.057"}
{"variant": "G31P", "abundance fitness": "-0.285 ± 0.051"}
{"variant": "G31Y", "abundance fitness": "-0.176 ± 0.058"}
{"variant": "G31K", "abundance fitness": "-0.091 ± 0.083"}
{"variant": "C5A", "abundance fitness": "-0.82 ± 0.062"}
{"variant": "C5Q", "abundance fitness": "-0.996 ± 0.082"}
{"variant": "C5H", "abundance fitness": "-0.873 ± 0.097"}
{"variant": "C5I", "abundance fitness": "-1.14 ± 0.11"}
{"variant": "C5M", "abundance fitness": "-1.02 ± 0.12"}
{"variant": "C5F", "abundance fitness": "-1.08 ± 0.16"}
{"variant": "R22D", "abundance fitness": "-0.197 ± 0.11"}
{"variant": "R22L", "abundance fitness": "-0.029 ± 0.075"}
{"variant": "R22Q", "abundance fitness": "0.036 ± 0.059"}
{"variant": "R12P", "abundance fitness": "0.186 ± 0.12"}
{"variant": "R12K", "abundance fitness": "-0.365 ± 0.28"}
{"variant": "R12A", "abundance fitness": "-0.258 ± 0.12"}
{"variant": "R12I", "abundance fitness": "-0.14 ± 0.079"}
{"variant": "R12G", "abundance fitness": "-0.057 ± 0.061"}
{"variant": "E18V", "abundance fitness": "-0.172 ± 0.069"}
{"variant": "E18D", "abundance fitness": "0.116 ± 0.083"}
{"variant": "E18S", "abundance fitness": "-0.148 ± 0.057"}
{"variant": "E18P", "abundance fitness": "-0.269 ± 0.076"}
{"variant": "E18Q", "abundance fitness": "-0.08 ± 0.073"}
{"variants_of": "B2", "experiment": "abundance fitness (aPCA) (normalised: wild type 0, dead -1); higher = more abundant; growth selection in yeast, the domain comes from the species named", "details": "Homo sapiens"}
{"variant": "G45S", "abundance fitness": "-0.005 ± 0.13"}
{"variant": "L20D", "abundance fitness": "-0.566 ± 0.14"}
{"variant": "L20N", "abundance fitness": "-0.337 ± 0.12"}
{"variant": "L21F", "abundance fitness": "-0.3 ± 0.13"}
{"variant": "L21K", "abundance fitness": "-0.005 ± 0.12"}
{"variant": "L21Y", "abundance fitness": "-0.374 ± 0.11"}
{"variant": "L21E", "abundance fitness": "-0.336 ± 0.14"}
{"variant": "Q9T", "abundance fitness": "-0.063 ± 0.092"}
{"variant": "Q9P", "abundance fitness": "0.004 ± 0.11"}
{"variant": "C11D", "abundance fitness": "-1.05 ± 0.15"}
{"variant": "C11L", "abundance fitness": "-1.01 ± 0.1"}
{"variant": "C11M", "abundance fitness": "-1.08 ± 0.17"}
{"variant": "C30F", "abundance fitness": "-0.002 ± 0.11"}
{"variant": "C30M", "abundance fitness": "0.069 ± 0.09"}
{"variant": "C30E", "abundance fitness": "0.034 ± 0.083"}
{"variant": "C30A", "abundance fitness": "-0.101 ± 0.08"}
{"variant": "C30R", "abundance fitness": "-0.023 ± 0.064"}
{"variant": "C30Q", "abundance fitness": "0.024 ± 0.11"}
{"variant": "P37L", "abundance fitness": "-0.177 ± 0.069"}
{"variant": "S2T", "abundance fitness": "0.019 ± 0.2"}
{"variant": "S2A", "abundance fitness": "-0.084 ± 0.1"}
{"variant": "C34I", "abundance fitness": "-0.961 ± 0.19"}
{"variant": "C34L", "abundance fitness": "-0.763 ± 0.079"}
{"variant": "K5V", "abundance fitness": "-0.176 ± 0.078"}
{"variant": "K5Q", "abundance fitness": "-0.113 ± 0.099"}
{"variant": "K5N", "abundance fitness": "-0.035 ± 0.16"}
{"variant": "K5L", "abundance fitness": "-0.202 ± 0.08"}
{"variant": "K5G", "abundance fitness": "-0.077 ± 0.079"}
{"variant": "I39F", "abundance fitness": "-0.164 ± 0.15"}
{"variant": "A56T", "abundance fitness": "-0.155 ± 0.16"}
{"variant": "A56R", "abundance fitness": "0.174 ± 0.23"}
{"variant": "C52M", "abundance fitness": "-0.487 ± 0.26"}
{"variant": "C52H", "abundance fitness": "-0.392 ± 0.17"}
{"variant": "C52S", "abundance fitness": "-0.652 ± 0.091"}
{"variant": "C52Q", "abundance fitness": "-0.531 ± 0.15"}
{"variant": "N16L", "abundance fitness": "-0.116 ± 0.084"}
{"variant": "N16I", "abundance fitness": "-0.098 ± 0.13"}
{"variant": "N16V", "abundance fitness": "-0.181 ± 0.11"}
{"variant": "N16W", "abundance fitness": "-0.183 ± 0.11"}
{"variant": "Y33I", "abundance fitness": "-0.223 ± 0.18"}
{"variant": "Y33V", "abundance fitness": "-0.178 ± 0.071"}
{"variant": "Y33R", "abundance fitness": "-0.053 ± 0.069"}
{"variant": "C49S", "abundance fitness": "-0.838 ± 0.092"}
{"variant": "I42K", "abundance fitness": "0.009 ± 0.1"}
{"variant": "I42F", "abundance fitness": "-0.007 ± 0.2"}
{"variant": "K38Y", "abundance fitness": "-0.148 ± 0.12"}
{"variant": "K38P", "abundance fitness": "-0.122 ± 0.092"}
{"variant": "H31Y", "abundance fitness": "-0.573 ± 0.1"}
{"variant": "K28C", "abundance fitness": "-0.158 ± 0.13"}
{"variant": "K28N", "abundance fitness": "-0.047 ± 0.14"}
{"variant": "V6C", "abundance fitness": "-0.208 ± 0.13"}
{"variant": "V6D", "abundance fitness": "-0.007 ± 0.21"}
{"variant": "T40G", "abundance fitness": "-0.106 ± 0.079"}
{"variant": "T40D", "abundance fitness": "-0.095 ± 0.21"}
{"variant": "T40V", "abundance fitness": "-0.056 ± 0.098"}
{"variant": "D15V", "abundance fitness": "-0.06 ± 0.094"}
{"variant": "D15Y", "abundance fitness": "-0.452 ± 0.17"}
{"variant": "G29I", "abundance fitness": "0.084 ± 0.22"}
{"variant": "D44A", "abundance fitness": "-0.11 ± 0.1"}
{"variant": "D44K", "abundance fitness": "-0.235 ± 0.13"}
{"variant": "D44H", "abundance fitness": "-0.022 ± 0.17"}
{"variant": "D44T", "abundance fitness": "-0.078 ± 0.12"}
{"variant": "D44M", "abundance fitness": "-0.083 ± 0.12"}
{"variant": "D24G", "abundance fitness": "0.155 ± 0.095"}
{"variant": "D24M", "abundance fitness": "0.026 ± 0.13"}
{"variant": "D24C", "abundance fitness": "0.073 ± 0.15"}
{"variant": "E17N", "abundance fitness": "-0.139 ± 0.21"}
{"variant": "K55Q", "abundance fitness": "-0.171 ± 0.36"}
{"variant": "W47Q", "abundance fitness": "-0.203 ± 0.12"}
{"variant": "W47A", "abundance fitness": "-0.168 ± 0.087"}
{"variant": "W47L", "abundance fitness": "-0.312 ± 0.083"}
{"variant": "I3W", "abundance fitness": "-0.221 ± 0.092"}
{"variant": "I3F", "abundance fitness": "-0.282 ± 0.2"}
{"variant": "I3T", "abundance fitness": "-0.063 ± 0.1"}
{"variant": "P50G", "abundance fitness": "-0.235 ± 0.34"}
{"variant": "T32M", "abundance fitness": "-0.048 ± 0.1"}
{"variant": "T32E", "abundance fitness": "-0.27 ± 0.097"}
{"variant": "T32G", "abundance fitness": "-0.118 ± 0.064"}
{"variant": "T32H", "abundance fitness": "-0.111 ± 0.16"}
{"variant": "T32V", "abundance fitness": "-0.053 ± 0.079"}
{"variant": "T32N", "abundance fitness": "-0.133 ± 0.2"}
{"variant": "R36G", "abundance fitness": "-0.015 ± 0.068"}
{"variant": "R36C", "abundance fitness": "0.008 ± 0.12"}
{"variant": "R36E", "abundance fitness": "0.058 ± 0.1"}
{"variant": "R36W", "abundance fitness": "-0.004 ± 0.12"}
{"variant": "F48C", "abundance fitness": "0.037 ± 0.12"}
{"variant": "L22K", "abundance fitness": "0.144 ± 0.12"}
{"variant": "L22Y", "abundance fitness": "-0.174 ± 0.17"}
{"variant": "M4K", "abundance fitness": "-0.127 ± 0.17"}
{"variant": "R12H", "abundance fitness": "-0.187 ± 0.14"}
{"variant": "R12G", "abundance fitness": "-0.055 ± 0.063"}
{"variant": "R12S", "abundance fitness": "0.042 ± 0.09"}
{"variant": "R12C", "abundance fitness": "-0.163 ± 0.12"}
{"variant": "R12E", "abundance fitness": "0.008 ± 0.097"}
{"variant": "D46P", "abundance fitness": "0.058 ± 0.12"}
{"variant": "D46T", "abundance fitness": "-0.094 ± 0.096"}
{"variant": "E18Q", "abundance fitness": "-0.067 ± 0.1"}
{"variant": "E18V", "abundance fitness": "-0.205 ± 0.086"}
{"variant": "E18P", "abundance fitness": "-0.183 ± 0.12"}
{"variant": "E18M", "abundance fitness": "-0.039 ± 0.13"}
{"variant": "C8F", "abundance fitness": "-0.978 ± 0.36"}
{"variant": "K13E", "abundance fitness": "-0.045 ± 0.12"}
{"variant": "K13P", "abundance fitness": "-0.512 ± 0.1"}
{"variant": "K13Q", "abundance fitness": "-0.111 ± 0.099"}
{"variant": "K1V", "abundance fitness": "-0.581 ± 0.36"}
{"variant": "K1R", "abundance fitness": "-0.366 ± 0.12"}
{"variant": "G14P", "abundance fitness": "-0.026 ± 0.11"}
{"variant": "G14H", "abundance fitness": "-0.054 ± 0.18"}
{"variant": "G25N", "abundance fitness": "-0.16 ± 0.13"}
{"variant": "G25E", "abundance fitness": "-0.014 ± 0.1"}
{"variant": "G25P", "abundance fitness": "-0.551 ± 0.1"}
{"variant": "G25I", "abundance fitness": "-0.45 ± 0.26"}
{"variant": "A51S", "abundance fitness": "-0.024 ± 0.082"}
{"variant": "A51E", "abundance fitness": "0.028 ± 0.11"}
{"variant": "A51L", "abundance fitness": "-0.045 ± 0.086"}
{"variant": "T41N", "abundance fitness": "-0.059 ± 0.16"}
{"variant": "L19M", "abundance fitness": "0.061 ± 0.13"}
{"variant": "Y7C", "abundance fitness": "-0.136 ± 0.13"}
{"variant": "H35S", "abundance fitness": "-0.105 ± 0.077"}
